Laboratory results published in publication PMC2708935.
Several values for one entry are separate records, joined by “and”; a condition that tells them apart may be missing. Equal values may be shown once. Read-outs that look alike come from different tables or passages of the source.

Experiments:
[1] = target: receptor-associated protein (RAP), GST-free (UniProt P30533); experiment: SEC
[2] = target: receptor-associated protein (RAP), GST-free (UniProt P30533); experiment: native gel or EMSA
RAP domain 3 (D3) [3] = experiment: other fluorescence titration
RAP domain 2 (D2) [4] = target: RAP domain 2 (D2) (UniProt P30533); experiment: other fluorescence titration
[5] = target: receptor-associated protein (RAP), GST-free (UniProt P30533); experiment: other fluorescence titration
RAP domain 1 (D1) [6] = experiment: other fluorescence titration
[7] = target: receptor-associated protein (RAP), GST-free (UniProt P30533); experiment: AUC
RAP domain 3 (D3) [8] = experiment: other fluorescence titration; remark: listed apart in the source
RAP domain 2 (D2) [9] = target: RAP domain 2 (D2) (UniProt P30533); experiment: other fluorescence titration; remark: listed apart in the source
RAP domain 1 (D1) [10] = experiment: other fluorescence titration; remark: listed apart in the source
[11] = target: receptor-associated protein (RAP), GST-free (UniProt P30533); experiment: ITC
[12] = target: CR678, LRP fragment containing domains CR6, CR7 and CR8; experiment: other fluorescence titration
[13] = target: CR89, LRP fragment containing domains CR8 and CR9; experiment: other fluorescence titration
[14] = target: CR567, LRP fragment containing domains CR5, CR6 and CR7; experiment: other fluorescence titration
[15] = target: CR56, LRP fragment containing domains CR5 and CR6 (UniProt Q07954); experiment: other fluorescence titration
[16] = target: CR34, LRP fragment containing domains CR3 and CR4; experiment: other fluorescence titration
[17] = target: CR78, LRP fragment containing domains CR7 and CR8; experiment: other fluorescence titration
[18] = target: CR45, LRP fragment containing domains CR4 and CR5; experiment: other fluorescence titration
[19] = target: CR345, LRP fragment containing domains CR3, CR4 and CR5; experiment: other fluorescence titration
[20] = target: CR56, LRP fragment containing domains CR5 and CR6 (UniProt Q07954); experiment: ITC
[21] = target: CR456, LRP fragment containing domains CR4, CR5 and CR6; experiment: other fluorescence titration
CR456, LRP fragment containing domains CR4, CR5 and CR6, sequence (Q07954 20-4544): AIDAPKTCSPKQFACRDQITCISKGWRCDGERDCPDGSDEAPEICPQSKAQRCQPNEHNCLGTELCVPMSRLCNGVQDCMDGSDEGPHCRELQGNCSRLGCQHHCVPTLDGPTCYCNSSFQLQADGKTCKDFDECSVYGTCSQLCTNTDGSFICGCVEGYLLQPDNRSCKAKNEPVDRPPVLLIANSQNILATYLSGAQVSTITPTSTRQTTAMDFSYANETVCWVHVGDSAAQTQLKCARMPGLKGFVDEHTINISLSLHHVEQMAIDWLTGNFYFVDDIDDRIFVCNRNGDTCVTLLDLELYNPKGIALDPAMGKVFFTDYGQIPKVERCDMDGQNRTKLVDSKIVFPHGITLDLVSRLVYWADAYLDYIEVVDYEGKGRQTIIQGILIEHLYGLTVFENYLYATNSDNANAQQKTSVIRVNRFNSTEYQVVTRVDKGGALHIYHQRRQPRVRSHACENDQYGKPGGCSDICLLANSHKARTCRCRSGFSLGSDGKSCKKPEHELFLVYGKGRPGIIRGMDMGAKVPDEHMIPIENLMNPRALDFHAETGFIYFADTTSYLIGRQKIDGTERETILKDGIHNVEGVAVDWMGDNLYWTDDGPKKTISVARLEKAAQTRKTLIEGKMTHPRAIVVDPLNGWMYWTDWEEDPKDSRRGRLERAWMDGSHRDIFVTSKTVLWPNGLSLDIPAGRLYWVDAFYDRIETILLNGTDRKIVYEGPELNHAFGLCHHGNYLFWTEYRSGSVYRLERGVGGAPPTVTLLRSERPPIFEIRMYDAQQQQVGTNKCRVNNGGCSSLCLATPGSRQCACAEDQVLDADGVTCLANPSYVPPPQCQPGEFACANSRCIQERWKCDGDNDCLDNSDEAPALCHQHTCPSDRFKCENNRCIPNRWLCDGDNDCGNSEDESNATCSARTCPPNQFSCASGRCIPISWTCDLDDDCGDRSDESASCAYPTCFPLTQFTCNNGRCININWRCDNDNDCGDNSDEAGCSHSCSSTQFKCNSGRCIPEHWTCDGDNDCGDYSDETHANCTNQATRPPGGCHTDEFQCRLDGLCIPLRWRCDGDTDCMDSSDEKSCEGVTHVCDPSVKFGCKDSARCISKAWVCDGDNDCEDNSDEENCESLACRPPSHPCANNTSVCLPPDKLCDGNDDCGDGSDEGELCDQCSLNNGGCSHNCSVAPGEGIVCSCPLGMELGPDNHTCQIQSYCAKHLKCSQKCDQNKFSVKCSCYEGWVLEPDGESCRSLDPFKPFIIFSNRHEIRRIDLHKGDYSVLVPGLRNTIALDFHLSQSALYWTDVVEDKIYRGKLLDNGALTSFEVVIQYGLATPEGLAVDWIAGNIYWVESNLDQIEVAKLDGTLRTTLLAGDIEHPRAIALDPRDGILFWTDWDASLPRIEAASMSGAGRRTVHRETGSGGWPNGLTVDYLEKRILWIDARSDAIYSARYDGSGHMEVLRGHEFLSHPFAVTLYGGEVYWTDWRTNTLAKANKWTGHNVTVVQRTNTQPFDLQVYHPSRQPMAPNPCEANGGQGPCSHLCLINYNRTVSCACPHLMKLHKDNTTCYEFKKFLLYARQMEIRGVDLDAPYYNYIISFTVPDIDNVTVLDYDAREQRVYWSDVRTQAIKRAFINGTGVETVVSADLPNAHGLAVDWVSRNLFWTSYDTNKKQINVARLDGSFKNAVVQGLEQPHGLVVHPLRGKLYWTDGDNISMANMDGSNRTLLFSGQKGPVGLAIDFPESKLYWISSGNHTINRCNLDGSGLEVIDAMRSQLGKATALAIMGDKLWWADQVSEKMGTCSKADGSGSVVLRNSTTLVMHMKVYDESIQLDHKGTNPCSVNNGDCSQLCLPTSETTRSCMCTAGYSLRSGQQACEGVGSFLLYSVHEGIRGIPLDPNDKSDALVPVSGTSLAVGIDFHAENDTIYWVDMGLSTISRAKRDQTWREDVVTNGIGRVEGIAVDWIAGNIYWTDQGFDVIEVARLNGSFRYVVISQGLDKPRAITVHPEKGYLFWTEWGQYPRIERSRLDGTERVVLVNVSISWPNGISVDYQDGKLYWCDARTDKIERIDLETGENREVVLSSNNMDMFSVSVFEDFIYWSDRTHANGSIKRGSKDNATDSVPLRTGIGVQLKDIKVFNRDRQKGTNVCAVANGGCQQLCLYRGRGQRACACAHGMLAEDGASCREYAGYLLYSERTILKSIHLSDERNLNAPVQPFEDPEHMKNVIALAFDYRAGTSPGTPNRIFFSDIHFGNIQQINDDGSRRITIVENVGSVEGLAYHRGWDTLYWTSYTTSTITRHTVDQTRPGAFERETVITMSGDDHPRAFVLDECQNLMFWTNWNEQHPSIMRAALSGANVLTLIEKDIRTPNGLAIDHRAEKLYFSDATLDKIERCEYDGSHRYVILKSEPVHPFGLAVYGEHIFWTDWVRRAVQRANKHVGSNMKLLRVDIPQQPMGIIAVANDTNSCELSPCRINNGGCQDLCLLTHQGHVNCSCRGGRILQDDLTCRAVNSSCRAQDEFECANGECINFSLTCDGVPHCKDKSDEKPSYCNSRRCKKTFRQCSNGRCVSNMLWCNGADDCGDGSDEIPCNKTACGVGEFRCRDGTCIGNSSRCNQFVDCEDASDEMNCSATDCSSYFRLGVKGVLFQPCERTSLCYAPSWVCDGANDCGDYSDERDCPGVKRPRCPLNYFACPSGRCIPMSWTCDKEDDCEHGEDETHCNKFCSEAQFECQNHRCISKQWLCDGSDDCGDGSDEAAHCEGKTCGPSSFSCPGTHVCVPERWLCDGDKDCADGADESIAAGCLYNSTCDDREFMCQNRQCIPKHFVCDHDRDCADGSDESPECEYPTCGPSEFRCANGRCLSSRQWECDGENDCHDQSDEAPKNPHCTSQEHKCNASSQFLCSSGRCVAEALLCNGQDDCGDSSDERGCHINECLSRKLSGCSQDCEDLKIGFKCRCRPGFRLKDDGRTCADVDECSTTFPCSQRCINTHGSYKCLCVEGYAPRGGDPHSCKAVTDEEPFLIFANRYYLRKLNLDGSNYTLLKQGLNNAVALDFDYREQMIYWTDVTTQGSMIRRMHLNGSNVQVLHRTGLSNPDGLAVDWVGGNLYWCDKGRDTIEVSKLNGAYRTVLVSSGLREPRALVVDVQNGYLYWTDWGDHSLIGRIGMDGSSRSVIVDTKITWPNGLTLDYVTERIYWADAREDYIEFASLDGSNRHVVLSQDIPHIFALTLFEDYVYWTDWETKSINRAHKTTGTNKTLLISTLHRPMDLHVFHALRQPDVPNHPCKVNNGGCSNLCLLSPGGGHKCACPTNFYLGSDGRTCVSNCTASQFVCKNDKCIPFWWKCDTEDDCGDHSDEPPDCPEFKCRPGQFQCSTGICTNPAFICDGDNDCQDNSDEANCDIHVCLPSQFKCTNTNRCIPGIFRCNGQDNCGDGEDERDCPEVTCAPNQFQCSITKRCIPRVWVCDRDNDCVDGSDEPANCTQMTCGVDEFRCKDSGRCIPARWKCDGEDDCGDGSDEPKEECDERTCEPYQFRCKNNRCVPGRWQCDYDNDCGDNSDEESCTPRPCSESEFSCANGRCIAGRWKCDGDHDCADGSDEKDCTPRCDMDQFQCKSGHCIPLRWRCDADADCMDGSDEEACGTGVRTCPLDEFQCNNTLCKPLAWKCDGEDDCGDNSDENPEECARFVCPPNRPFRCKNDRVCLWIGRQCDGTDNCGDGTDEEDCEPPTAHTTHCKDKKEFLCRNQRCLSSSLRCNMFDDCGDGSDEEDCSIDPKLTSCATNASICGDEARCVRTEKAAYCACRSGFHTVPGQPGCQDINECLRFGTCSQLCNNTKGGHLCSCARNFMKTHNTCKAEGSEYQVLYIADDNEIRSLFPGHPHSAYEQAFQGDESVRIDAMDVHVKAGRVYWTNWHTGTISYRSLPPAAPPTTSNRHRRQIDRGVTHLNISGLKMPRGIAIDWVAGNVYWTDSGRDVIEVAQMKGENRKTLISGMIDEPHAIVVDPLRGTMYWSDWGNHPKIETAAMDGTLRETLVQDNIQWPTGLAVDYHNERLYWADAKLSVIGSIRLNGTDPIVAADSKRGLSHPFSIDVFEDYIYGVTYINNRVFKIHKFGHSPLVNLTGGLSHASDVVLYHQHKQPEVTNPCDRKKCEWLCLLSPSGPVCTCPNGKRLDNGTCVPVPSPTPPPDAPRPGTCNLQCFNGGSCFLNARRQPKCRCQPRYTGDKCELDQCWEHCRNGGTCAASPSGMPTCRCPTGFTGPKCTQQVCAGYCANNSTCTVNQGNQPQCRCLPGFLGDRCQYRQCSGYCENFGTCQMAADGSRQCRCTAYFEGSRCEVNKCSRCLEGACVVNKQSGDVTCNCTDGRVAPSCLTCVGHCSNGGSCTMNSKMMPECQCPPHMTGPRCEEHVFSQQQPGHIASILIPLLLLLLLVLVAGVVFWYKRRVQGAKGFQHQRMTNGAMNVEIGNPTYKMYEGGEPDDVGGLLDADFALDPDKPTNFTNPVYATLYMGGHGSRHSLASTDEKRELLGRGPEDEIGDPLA

CR56, LRP fragment containing domains CR5 and CR6 (from UniProt Q07954 932-1013) (domain or fragment), sequence (Q07954 932-1013): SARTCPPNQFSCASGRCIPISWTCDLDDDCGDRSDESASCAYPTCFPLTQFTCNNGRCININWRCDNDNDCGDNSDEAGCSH
CR56, LRP fragment containing domains CR5 and CR6 (UniProt Q07954), sequence (Q07954 932-1013): as above
CR456, LRP fragment containing domains CR4, CR5 and CR6 (domain or fragment), sequence (Q07954 20-4544): as the sequence (Q07954 20-4544) above
CR78, LRP fragment containing domains CR7 and CR8, sequence (Q07954 20-4544): as above
CR345, LRP fragment containing domains CR3, CR4 and CR5 (domain or fragment), sequence (Q07954 20-4544): as above
CR678, LRP fragment containing domains CR6, CR7 and CR8, sequence (Q07954 20-4544): as above
CR34, LRP fragment containing domains CR3 and CR4, sequence (Q07954 20-4544): as above
CR45, LRP fragment containing domains CR4 and CR5, sequence (Q07954 20-4544): as above
CR89, LRP fragment containing domains CR8 and CR9, sequence (Q07954 20-4544): as above
CR567, LRP fragment containing domains CR5, CR6 and CR7, sequence (Q07954 20-4544): as above
CR345, LRP fragment containing domains CR3, CR4 and CR5, sequence (Q07954 20-4544): as above

Kd [12] [nM]	Kd [13] [nM]	Kd [14] [nM]	Kd [15] [nM]	Kd [16] [nM]	Kd [17] [nM]	Kd [18] [nM]	Kd [19] [nM]	Kd [20] [nM]	dH [20] [kcal/mol]	Substance	stoichiometry N (equivalents of CR per RAP) [2]	Kd1 (site 1, fixed in the fit) [5] [nM]	Kd2 (site 2) [5] [nM]	also measured
859	35	15	20	38	927	24	23	62	-18.4	RAP domain 1 (D1) (domain or fragment)	–	–	–	–
44	42	18	54	19	116	30	23	270	-8.8	RAP domain 2 (D2) (from UniProt P30533 35-357) (domain or fragment)	–	–	–	–
26	20	5.3	37	3.5	55	17	–	77	-17.1	RAP domain 3 (D3) (domain or fragment)	–	–	–	Kd [21]: 8 nM

The next lines start with the substance.

Substance	Kd [12] [nM]	Kd [13] [nM]	Kd [14] [nM]	Kd [15] [nM]	Kd [16] [nM]	Kd [17] [nM]	Kd [18] [nM]	Kd [19] [nM]	Kd [20] [nM]	dH [20] [kcal/mol]	stoichiometry N (equivalents of CR per RAP) [2]	Kd1 (site 1, fixed in the fit) [5] [nM]	Kd2 (site 2) [5] [nM]	also measured
CR56, LRP fragment containing domains CR5 and CR6 (from UniProt Q07954 932-1013) (domain or fragment)	–	–	–	–	–	–	–	–	–	–	2	20	56	stoichiometry N [1]: 2.1 CR56 per RAP; Kd (RAP domain 3 (D3) [3]): 7 nM; Kd (RAP domain 2 (D2) [4]): 22 nM; Kd (RAP domain 1 (D1) [6]): 29 nM; stoichiometry N [7]: 2 CR56 per RAP and 2.6 CR56 per RAP; Kd (RAP domain 3 (D3) [8]): 41 nM; Kd (RAP domain 2 (D2) [9]): 46 nM; Kd (RAP domain 1 (D1) [10]): 26 nM; dH (overall, two equivalents of CR56) [11]: -39.2 kcal/mol; stoichiometry N [11]: 2 CR56 per RAP
CR345, LRP fragment containing domains CR3, CR4 and CR5 (domain or fragment)	–	–	–	–	–	–	–	–	–	–	2	20	42	stoichiometry N (CR345 per RAP) [1]: 1.8; stoichiometry N (CR345 per RAP) [7]: 2 and 2.3
CR456, LRP fragment containing domains CR4, CR5 and CR6 (domain or fragment)	–	–	–	–	–	–	–	–	–	–	2	10	36	–
